Assay results taken from patent US20200071404A1 (Astellas, published 2020).
Values belong to the binder of their own block, whether it stands above or below them.

Assays:
[1] = molecular target: T1, human CD73 protein (BPS Bioscience Inc., 71184) (human, UniProt P21589 27-547, limits assumed); assay: ELISA, human CD73 protein immobilised on plate, second run
T1 sequence (looked up): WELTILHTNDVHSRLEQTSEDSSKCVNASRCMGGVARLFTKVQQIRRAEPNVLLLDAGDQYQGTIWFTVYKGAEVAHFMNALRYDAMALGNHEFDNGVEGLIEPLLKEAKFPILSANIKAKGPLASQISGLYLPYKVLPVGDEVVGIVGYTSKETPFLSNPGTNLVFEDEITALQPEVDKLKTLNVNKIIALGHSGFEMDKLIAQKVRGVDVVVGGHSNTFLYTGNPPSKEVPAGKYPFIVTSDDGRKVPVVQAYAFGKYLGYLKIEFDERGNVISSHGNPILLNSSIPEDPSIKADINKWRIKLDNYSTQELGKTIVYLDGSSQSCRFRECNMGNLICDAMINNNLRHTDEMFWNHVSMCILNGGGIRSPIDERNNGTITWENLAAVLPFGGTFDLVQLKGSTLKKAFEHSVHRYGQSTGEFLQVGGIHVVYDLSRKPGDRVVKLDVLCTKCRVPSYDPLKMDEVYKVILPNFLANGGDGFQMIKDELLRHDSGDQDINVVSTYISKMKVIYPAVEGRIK
Procedure: (§1) In order to evaluate the binding activity of CDS-1, CDS-3, CDS-6, CDS-7, and CDS-8 acquired in Example 1 to human CD73, the ELISA was performed using a human CD73 protein. The human CD73 protein (BPS Bioscience Inc., 71184) diluted in PBS (Life Technologies, Inc.) to have a concentration of 4 μg/mL was added to a MaxiSorp 384-well plate Clear (Thermo Fisher Scientific Inc.) by an amount of 20 μL/well, and then immobilized overnight at a temperature of 4° C. The next day, the resultant was washed with a wash solution (0.05% Tween-20 containing Tris-buffered saline (TBS)) once, Blocking One (Nacalai tesque, Inc.) was added thereto in an amount of 100 μL/well, and the resultant was blocked at room temperature for 30 minutes. The resultant was washed with the wash solution once again, and the purified CDS-1, the purified CDS-3, the purified CDS-6, the purified CDS-7, or the purified CDS-8 prepared in Example 1 was added thereto by an amount of 20 μL/well, respectively. These purified antibodies were diluted using a reaction buffer obtained by mixing the same amount of PBS and Blocking One, and dilution was performed in 12 steps from 10 μg/mL to 56 pg/mL. The resultant was reacted at room temperature for 1 hour, and then washed three times with a wash solution. 20 μL/well of a human IgG-heavy and light chain cross-adsorbed antibody (Bethyl Laboratories Inc., A80-219P) which had been diluted 4000-fold with a reaction buffer was added thereto, and the resultant was reacted at room temperature for 1 hour. The resultant was washed with a wash solution three times, and 20 μL/well of TMB+substrate-chromogen (DAKO Ltd., 51599) was added thereto. […] The values of absorbance at 450 nm and 540 nm were measured by Infinite M200 PRO (TECAN Inc.), and EC₅₀ values of CDS-1, CDS-3, CDS-6, CDS-7, and CDS-8 with respect to the human CD73 protein were calculated. In calculation of the EC₅₀ values, the ordinate represents a difference in the measurement values of absorbance at 450 nm and 540 nm, and the abscissa represents an antibody concentration value.

[2] = molecular target: T1, human CD73 protein (BPS Bioscience …); assay: ELISA, human CD73 protein immobilised on plate, first run
Procedure: as §1, with “respectively.” for “respectively. These purified antibodies were diluted using a reaction buffer obtained by mixing the same amount of PBS and Blocking One, and dilution was performed in 12 steps from 10 μg/mL to 56 pg/mL. The resultant was reacted at room temperature for 1 hour, and then washed three times with a wash solution. 20 μL/well of a human IgG-heavy and light chain cross-adsorbed antibody (Bethyl Laboratories Inc., A80-219P) which had been diluted 4000-fold with a reaction buffer was added thereto, and the resultant was reacted at room temperature for 1 hour. The resultant was washed with a wash solution three times, and 20 μL/well of TMB+substrate-chromogen (DAKO Ltd., 51599) was added thereto.”

[3] = molecular target: T2, human CD73 expressed on cells (cancer cell line NCI-H1373 endogenously expressing human CD73); human T cell … (human, UniProt P21589 27-549); assay: cell-based or functional assay
T2 sequence (looked up): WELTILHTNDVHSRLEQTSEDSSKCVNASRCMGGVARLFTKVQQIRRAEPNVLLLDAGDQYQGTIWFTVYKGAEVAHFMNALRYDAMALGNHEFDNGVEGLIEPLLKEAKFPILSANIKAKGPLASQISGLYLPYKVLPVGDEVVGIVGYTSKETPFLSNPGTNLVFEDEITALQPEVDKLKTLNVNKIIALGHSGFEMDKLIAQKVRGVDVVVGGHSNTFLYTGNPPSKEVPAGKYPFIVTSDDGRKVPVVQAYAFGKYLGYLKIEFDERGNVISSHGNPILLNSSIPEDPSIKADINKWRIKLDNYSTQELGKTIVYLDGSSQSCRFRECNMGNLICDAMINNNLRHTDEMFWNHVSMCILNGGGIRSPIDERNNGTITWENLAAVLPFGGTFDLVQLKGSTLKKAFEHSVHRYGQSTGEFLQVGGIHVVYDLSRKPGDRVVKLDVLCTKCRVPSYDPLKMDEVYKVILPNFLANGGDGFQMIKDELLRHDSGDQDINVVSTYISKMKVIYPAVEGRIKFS

[4] = molecular target: T2, human CD73 expressed on cells (cancer …); assay: cell-based or functional assay; remark: listed apart in the source
[5] = molecular target: T3, human CD73 protein (R&D Systems, Inc., 5795) (human, UniProt P21589 27-549); assay: cell-based or functional assay
T3 sequence (looked up): T2 sequence (looked up)

EC50 [1]: 0.0088 µg/mL
EC50 [2]: 0.0039 µg/mL
EC50 (ng/mL), IFNγ; recovery of AMP-dependently suppressed human T cell functions [3]: 5.8 ng/mL
EC50 (ng/mL), Proliferation of T cells; recovery of AMP-dependently suppressed human T cell functions [3]: 23.2 ng/mL
EC50 (ng/mL), First; inhibition of enzymatic activity of human CD73 in NCI-H1373 cells (adenosine from AMP, LC/MS) [4]: 785 ng/mL
EC50 (ng/mL), Second; inhibition of enzymatic activity of human CD73 in NCI-H1373 cells (adenosine from AMP, LC/MS) [4]: 579 ng/mL
EC50 (ng/mL), First; inhibition of enzymatic activity of human CD73 protein (adenosine from AMP, LC/MS) [5]: 16.8 ng/mL
EC50 (ng/mL), Second; inhibition of enzymatic activity of human CD73 protein (adenosine from AMP, LC/MS) [5]: 9.2 ng/mL
B1: anti-human CD73 antibody CDS-1 (antibody, human IgG1, kappa, L234A L235A)
heavy: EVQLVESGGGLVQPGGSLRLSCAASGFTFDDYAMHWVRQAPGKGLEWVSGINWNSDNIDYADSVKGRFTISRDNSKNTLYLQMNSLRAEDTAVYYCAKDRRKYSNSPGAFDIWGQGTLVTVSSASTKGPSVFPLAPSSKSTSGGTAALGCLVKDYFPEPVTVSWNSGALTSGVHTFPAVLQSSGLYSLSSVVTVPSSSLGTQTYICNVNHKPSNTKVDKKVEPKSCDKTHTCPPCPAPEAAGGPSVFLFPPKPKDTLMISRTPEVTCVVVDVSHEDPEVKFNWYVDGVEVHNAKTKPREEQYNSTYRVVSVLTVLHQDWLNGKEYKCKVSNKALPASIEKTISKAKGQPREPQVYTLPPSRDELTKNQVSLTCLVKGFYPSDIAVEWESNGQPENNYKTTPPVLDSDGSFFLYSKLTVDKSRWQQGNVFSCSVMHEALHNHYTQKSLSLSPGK
light: DIQMTQSPSSLSASVGDRVTITCRASQIIGPWLAWYQQKPGKAPKLLIYRASSLESGVPSRFSGSGSGTDFTLTISSLQPEDFATYYCQQYNSYSPWTFGQGTKVEIKRTVAAPSVFIFPPSDEQLKSGTASVVCLLNNFYPREAKVQWKVDNALQSGNSQESVTEQDSKDSTYSLSSTLTLSKADYEKHKVYACEVTHQGLSSPVTKSFNRGEC
notes: also called purified CDS-1

EC50 [1]: 0.0209 µg/mL
EC50 (ng/mL), Second; inhibition of enzymatic activity of human CD73 in NCI-H1373 cells (adenosine from AMP, LC/MS) [4]: 455 ng/mL
EC50 (ng/mL), Second; inhibition of enzymatic activity of human CD73 protein (adenosine from AMP, LC/MS) [5]: 19.4 ng/mL
B2: CDS-3, fused form in which human IL-7 is fused to the C terminal side of the heavy chain of CDS-1 (antibody, human IgG1, kappa, L234A L235A)
heavy: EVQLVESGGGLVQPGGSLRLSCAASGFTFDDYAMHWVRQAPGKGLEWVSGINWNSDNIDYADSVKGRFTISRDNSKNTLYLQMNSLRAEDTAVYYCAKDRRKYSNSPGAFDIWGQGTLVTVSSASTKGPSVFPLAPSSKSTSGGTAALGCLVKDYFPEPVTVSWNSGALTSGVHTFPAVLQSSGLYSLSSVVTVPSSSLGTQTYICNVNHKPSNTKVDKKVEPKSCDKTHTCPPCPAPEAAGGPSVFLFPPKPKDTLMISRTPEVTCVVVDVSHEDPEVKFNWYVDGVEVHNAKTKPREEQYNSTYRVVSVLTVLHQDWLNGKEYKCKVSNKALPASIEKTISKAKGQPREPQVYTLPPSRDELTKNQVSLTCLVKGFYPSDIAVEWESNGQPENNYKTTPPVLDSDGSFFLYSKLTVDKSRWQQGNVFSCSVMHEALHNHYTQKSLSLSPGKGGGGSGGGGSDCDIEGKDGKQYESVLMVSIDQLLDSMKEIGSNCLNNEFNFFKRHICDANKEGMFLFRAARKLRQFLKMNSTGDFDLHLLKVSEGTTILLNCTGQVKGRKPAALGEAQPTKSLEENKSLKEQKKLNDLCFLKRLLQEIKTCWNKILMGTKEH
light: B1 light
notes: also called purified CDS-3

EC50 [1]: 0.0196 µg/mL
EC50 (ng/mL), Second; inhibition of enzymatic activity of human CD73 in NCI-H1373 cells (adenosine from AMP, LC/MS) [4]: 678 ng/mL
EC50 (ng/mL), Second; inhibition of enzymatic activity of human CD73 protein (adenosine from AMP, LC/MS) [5]: 20.4 ng/mL
B3: CDS-6, fused form in which human IL-7 variant is fused to the C terminal side of the heavy chain of CDS-1 (antibody, human IgG1, kappa, L234A L235A)
heavy: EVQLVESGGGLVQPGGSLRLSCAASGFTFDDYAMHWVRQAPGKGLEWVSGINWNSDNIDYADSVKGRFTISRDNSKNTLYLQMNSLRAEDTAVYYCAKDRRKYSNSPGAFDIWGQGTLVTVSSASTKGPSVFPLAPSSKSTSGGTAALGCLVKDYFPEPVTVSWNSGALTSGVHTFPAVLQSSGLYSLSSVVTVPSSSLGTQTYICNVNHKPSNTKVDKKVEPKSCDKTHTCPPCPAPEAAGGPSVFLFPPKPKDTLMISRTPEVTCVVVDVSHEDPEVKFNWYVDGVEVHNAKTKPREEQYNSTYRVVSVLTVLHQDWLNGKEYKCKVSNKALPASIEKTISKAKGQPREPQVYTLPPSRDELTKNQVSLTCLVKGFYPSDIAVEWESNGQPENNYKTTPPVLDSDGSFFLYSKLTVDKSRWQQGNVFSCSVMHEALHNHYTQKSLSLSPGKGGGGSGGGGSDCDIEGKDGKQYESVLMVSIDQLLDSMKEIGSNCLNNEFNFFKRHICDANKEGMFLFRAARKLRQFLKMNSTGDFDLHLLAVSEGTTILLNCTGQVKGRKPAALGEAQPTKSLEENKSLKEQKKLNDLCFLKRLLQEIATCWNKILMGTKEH
light: B1 light
notes: also called purified CDS-6
